Laboratory results taken from the supplement of paper PMC7877785.
± gives the uncertainty stated by the source.

Experiment: self-splicing fitness, log relative to wild type (ln ratio); higher = more splicing; Tetrahymena group I intron in knt gene, E. coli kanamycin selection, DiMSum; sequences stand for … in CUCUCU…GGAGGGAAAAGUUAUCAGGCAUGCACCUGGUAGCUAGUCUUUAAACCAAUAGAUUGCAUCGGUUUAAAAGGCAAGACCGUCAAAUUGCGGGAAAGGGGUCAACAGCCGUUCAGUACCAAGUCUCAGGGGAAACUUUGAGAUGGCCUUGCAAAGGGUAUGGUAAUAAGCUGACGGACAUGGUCCUAACCACGCAGCCAAGUCCUAAGUCAACAGAUCUUCUGUUGAUAUGGAUGCAGUUCACAGACUAAAUGUCGGUCGGGGAAGAUGUAUUCUUCUCAUAAGAUAUAGUCGGACCUCUCCUUAAUGGGAGCUAGCGGAUGAAGUGAUGCAACACUGGAGCCGCUGGGAACUAAUUUGUAUGCGAAAGUAUAUUGAUUAGUUUUGGAGUACUCGUGGUCG
Method in brief: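 The eight P1ex-region nucleotides of an intron in the knt kanamycin-resistance gene on pET-22b(+) were all randomised and the library put into E. coli BL21(DE3). Six replicate transformations were grown overnight at 37°C or 30°C on LB agar with or without 25 μg/mL kanamycin, together with 100 μg/mL carbenicillin, 50 μM IPTG and 0.2% rhamnose. Colonies were pooled and amplicon-sequenced on an Illumina HiSeq 2500. Fitness from DiMSum is the error-weighted combination of wild-type-normalised replicate fold changes, kanamycin over none.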

For CCGUAGCAAUAUUACGCAUG, the “self-splicing fitness (ln)” value (30 °C) was -0.123 ± 0.14 and the “self-splicing fitness (ln)” value (37 °C) was -1.09 ± 0.13.

In the case of CUGCAGCAAUAUUACGCUUG, the “self-splicing fitness (ln)” value (30 °C) is reported as -3.55 ± 0.2 and the “self-splicing fitness (ln)” value (37 °C) is reported as -2.25 ± 0.22.

In the case of ACUAAGCAAUAUUACGUUGU, the “self-splicing fitness (ln)” value (30 °C) is reported as -3.58 ± 0.16 and the “self-splicing fitness (ln)” value (37 °C) is reported as -2.78 ± 0.18.

For AAAAAGCAAUAUUACGUCGA, the “self-splicing fitness (ln)” value (30 °C) was -1.05 ± 0.067 and the “self-splicing fitness (ln)” value (37 °C) was -0.415 ± 0.082.

With CCUAAGCAAUAUUACGGACU the “self-splicing fitness (ln)” value (30 °C) was -3.46 ± 0.35 and the “self-splicing fitness (ln)” value (37 °C) was -2.29 ± 0.36.

With GUCGAGCAAUAUUACGAGGA the “self-splicing fitness (ln)” value (37 °C) was -2.44 ± 0.49.

For CUAGAGCAAUAUUACGACCA, the “self-splicing fitness (ln)” value (30 °C) was -2.61 ± 0.23 and the “self-splicing fitness (ln)” value (37 °C) was -1.15 ± 0.28.

For CCUUAGCAAUAUUACGACAC, the “self-splicing fitness (ln)” value (30 °C) was -2 ± 0.14 and the “self-splicing fitness (ln)” value (37 °C) was -2.1 ± 0.25.

With CAGCAGCAAUAUUACGUUCG the “self-splicing fitness (ln)” value (30 °C) was -0.171 ± 0.056 and the “self-splicing fitness (ln)” value (37 °C) was 0.0532 ± 0.076.

For CACGAGCAAUAUUACGGAGC, the “self-splicing fitness (ln)” value (30 °C) was -2.87 ± 0.44 and the “self-splicing fitness (ln)” value (37 °C) was -0.87 ± 0.19.

With AGAAAGCAAUAUUACGGGAC the “self-splicing fitness (ln)” value (30 °C) was -3.06 ± 0.26 and the “self-splicing fitness (ln)” value (37 °C) was -2 ± 0.32.

In the case of GGCCAGCAAUAUUACGAGAG, the “self-splicing fitness (ln)” value (30 °C) is reported as -3.27 ± 0.24 and the “self-splicing fitness (ln)” value (37 °C) is reported as -2.52 ± 0.25.

In the case of GUACAGCAAUAUUACGUCCA, the “self-splicing fitness (ln)” value (30 °C) is reported as -2.12 ± 0.13 and the “self-splicing fitness (ln)” value (37 °C) is reported as -1.23 ± 0.14.

With CGAUAGCAAUAUUACGCAGC the “self-splicing fitness (ln)” value (30 °C) was -4.01 ± 0.36 and the “self-splicing fitness (ln)” value (37 °C) was -1.34 ± 0.24.

For CCCGAGCAAUAUUACGUUCA, the “self-splicing fitness (ln)” value (30 °C) was -3 ± 0.16 and the “self-splicing fitness (ln)” value (37 °C) was -2.99 ± 0.22.

In the case of UUCAAGCAAUAUUACGAAGG, the “self-splicing fitness (ln)” value (30 °C) is reported as -4.7 ± 0.41 and the “self-splicing fitness (ln)” value (37 °C) is reported as -2.95 ± 0.26.

In the case of AGGAAGCAAUAUUACGAUUC, the “self-splicing fitness (ln)” value (30 °C) is reported as -1.41 ± 0.15 and the “self-splicing fitness (ln)” value (37 °C) is reported as -2.53 ± 0.18.

In the case of AGCAAGCAAUAUUACGCGGA, the “self-splicing fitness (ln)” value (30 °C) is reported as -2.04 ± 0.13 and the “self-splicing fitness (ln)” value (37 °C) is reported as -0.823 ± 0.099.

For CAGCAGCAAUAUUACGAUGC, the “self-splicing fitness (ln)” value (30 °C) was -4.05 ± 0.28 and the “self-splicing fitness (ln)” value (37 °C) was -2.89 ± 0.34.

In the case of UCUAAGCAAUAUUACGUCCA, the “self-splicing fitness (ln)” value (30 °C) is reported as -2 ± 0.14 and the “self-splicing fitness (ln)” value (37 °C) is reported as -0.707 ± 0.13.

In the case of AGAAAGCAAUAUUACGAUAA, the “self-splicing fitness (ln)” value (30 °C) is reported as -1.21 ± 0.054 and the “self-splicing fitness (ln)” value (37 °C) is reported as -0.539 ± 0.073.

For UUAGAGCAAUAUUACGCGAA, the “self-splicing fitness (ln)” value (30 °C) was -0.809 ± 0.14 and the “self-splicing fitness (ln)” value (37 °C) was -0.155 ± 0.18.

With CUUCAGCAAUAUUACGUCCG the “self-splicing fitness (ln)” value (30 °C) was -0.583 ± 0.056 and the “self-splicing fitness (ln)” value (37 °C) was -0.437 ± 0.09.

In the case of UGGAAGCAAUAUUACGCAAG, the “self-splicing fitness (ln)” value (37 °C) is reported as -1.83 ± 0.37.

With CCUAAGCAAUAUUACGUACU the “self-splicing fitness (ln)” value (30 °C) was -3.76 ± 0.43 and the “self-splicing fitness (ln)” value (37 °C) was -3.01 ± 0.29.

For GGAGAGCAAUAUUACGUAUU, the “self-splicing fitness (ln)” value (30 °C) was -4.02 ± 0.31 and the “self-splicing fitness (ln)” value (37 °C) was -1.22 ± 0.16.

For CGCCAGCAAUAUUACGUGAC, the “self-splicing fitness (ln)” value (30 °C) was -3.64 ± 0.32 and the “self-splicing fitness (ln)” value (37 °C) was -2.96 ± 0.33.

For GUGGAGCAAUAUUACGCGUU, the “self-splicing fitness (ln)” value (30 °C) was -2.56 ± 0.16 and the “self-splicing fitness (ln)” value (37 °C) was -1.94 ± 0.23.

For CGCAAGCAAUAUUACGAGCU, the “self-splicing fitness (ln)” value (30 °C) was -0.541 ± 0.063 and the “self-splicing fitness (ln)” value (37 °C) was -0.633 ± 0.078.

With CGCCAGCAAUAUUACGAUCC the “self-splicing fitness (ln)” value (30 °C) was -3.12 ± 0.37.

For AUCGAGCAAUAUUACGGGUC, the “self-splicing fitness (ln)” value (30 °C) was -3.91 ± 0.19 and the “self-splicing fitness (ln)” value (37 °C) was -3.15 ± 0.18.

For GAGGAGCAAUAUUACGAUAC, the “self-splicing fitness (ln)” value (30 °C) was -1.9 ± 0.18 and the “self-splicing fitness (ln)” value (37 °C) was -2.05 ± 0.38.

With ACAUAGCAAUAUUACGUGCU the “self-splicing fitness (ln)” value (30 °C) was -0.99 ± 0.072 and the “self-splicing fitness (ln)” value (37 °C) was -1.1 ± 0.085.

With GCCAAGCAAUAUUACGGAAA the “self-splicing fitness (ln)” value (30 °C) was -1.46 ± 0.16 and the “self-splicing fitness (ln)” value (37 °C) was -1.14 ± 0.13.

For GAAAAGCAAUAUUACGUGCU, the “self-splicing fitness (ln)” value (30 °C) was -1.8 ± 0.098 and the “self-splicing fitness (ln)” value (37 °C) was -0.978 ± 0.1.

In the case of GCUAAGCAAUAUUACGGGCG, the “self-splicing fitness (ln)” value (30 °C) is reported as -0.341 ± 0.12 and the “self-splicing fitness (ln)” value (37 °C) is reported as 0.183 ± 0.14.

For GCCAAGCAAUAUUACGAGAU, the “self-splicing fitness (ln)” value (30 °C) was -2.41 ± 0.14 and the “self-splicing fitness (ln)” value (37 °C) was -2.1 ± 0.17.

With UAAAAGCAAUAUUACGACCG the “self-splicing fitness (ln)” value (30 °C) was 0.0682 ± 0.1 and the “self-splicing fitness (ln)” value (37 °C) was 0.499 ± 0.15.

With UCUUAGCAAUAUUACGUGAC the “self-splicing fitness (ln)” value (30 °C) was -2.81 ± 0.18 and the “self-splicing fitness (ln)” value (37 °C) was -3.32 ± 0.4.

With CGUCAGCAAUAUUACGUAAC the “self-splicing fitness (ln)” value (30 °C) was -3.29 ± 0.35 and the “self-splicing fitness (ln)” value (37 °C) was -2.29 ± 0.26.

In the case of CGUAAGCAAUAUUACGAAAG, the “self-splicing fitness (ln)” value (30 °C) is reported as -1.98 ± 0.13 and the “self-splicing fitness (ln)” value (37 °C) is reported as -0.821 ± 0.12.

In the case of AGUCAGCAAUAUUACGAGGA, the “self-splicing fitness (ln)” value (30 °C) is reported as -2.97 ± 0.2 and the “self-splicing fitness (ln)” value (37 °C) is reported as -1.73 ± 0.16.

For AGCCAGCAAUAUUACGGCUA, the “self-splicing fitness (ln)” value (30 °C) was -2.42 ± 0.15 and the “self-splicing fitness (ln)” value (37 °C) was -0.727 ± 0.11.

For CUCAAGCAAUAUUACGUGAC, the “self-splicing fitness (ln)” value (30 °C) was -2.46 ± 0.15 and the “self-splicing fitness (ln)” value (37 °C) was -0.92 ± 0.12.

For GACAAGCAAUAUUACGCUCU, the “self-splicing fitness (ln)” value (30 °C) was -2.38 ± 0.13 and the “self-splicing fitness (ln)” value (37 °C) was -1.08 ± 0.12.

For AGGAAGCAAUAUUACGUAGA, the “self-splicing fitness (ln)” value (30 °C) was -1.86 ± 0.099 and the “self-splicing fitness (ln)” value (37 °C) was -2.42 ± 0.15.

For GUUUAGCAAUAUUACGACAC, the “self-splicing fitness (ln)” value (30 °C) was -0.84 ± 0.091 and the “self-splicing fitness (ln)” value (37 °C) was 0.0746 ± 0.14.

For UCAUAGCAAUAUUACGGAGA, the “self-splicing fitness (ln)” value (30 °C) was -1.95 ± 0.17 and the “self-splicing fitness (ln)” value (37 °C) was -0.994 ± 0.13.

For CUUGAGCAAUAUUACGUGGC, the “self-splicing fitness (ln)” value (37 °C) was -2.41 ± 0.31.
